Measurements: US20090202574A1, “METHODS OF IMMUNE OR HAEMATOLOGICAL ENHANCEMENT, INHIBITING TUMOUR FORMATION OR GROWTH, AND TREATING OR PREVENTING CANCER” (priority 2004, published 2009)

How the values were obtained:
EL-4 tumours = test: EL-4 tumour growth in mice (s.c. flank tumour model); type: in vivo, C57BL/6 mice; details: for inhibition of tumour growth: Example 1, oral diet, day 42
[1] = tested on: Lewis lung carcinoma (LLC) tumours; test: Lewis lung carcinoma tumour growth in mice; type: in vivo, C57BL/6 mice; details: Example 18; 28 g Fe-Lf per 2.4 Kg diet; epirubucin 15 mg/Kg i.p.
Protocol: (§1) Tumors were established by s.c. injection of 2×10^5 EL-4 cells into the left flank of mice, and growth determined by measuring two perpendicular diameters. Animals were euthanased when tumors reached more than 1.0 cm in diameter, in accord with Animal Ethics Approval (University of Auckland). All experiments included 5 mice per treatment group, unless otherwise indicated. Paclitaxel (30 mg dissolved in 5 ml of Cremophor® EL and dehydrated alcohol) was diluted in 0.9% NaCl and administered i.p. at 30 mg/Kg. Doxorubucin in water was injected i.p. at 15 mg/Kg. The drugs were injected in a volume of 0.01 to 0.02 ml/g body weight. The expression vector encoding mouse B7-1 was prepared by cesium chloride gradient centrifugation, and diluted to 5 μg/μl in a solution of 5% glucose in 0.01% Triton X-100. It was mixed in a ratio of 1:1 (wt:wt) with DOTAP cationic liposomes (Boehringer Mannheim, Germany). Tumors were injected with 180 μl of DNA (180 μg)/liposome complexes, as described previously (Kanwar, et al., 1999 and Kanwar, et al., 2000).
(§2) Mice were fed the control diet, and the same diet supplemented with 28 g of 100% Fe-saturated lactoferrin per 2.4 Kg of diet. EL-4 (2×10^5), Lewis lung carcinoma (LLC, 2×10^5), and B16 melanoma (2×10^5) tumour cells were injected into the left flanks of C57BL/6 mice following two weeks on the Lf diets, or control diet. […]

B16 melanoma tumours = test: B16 melanoma tumour growth in mice; type: in vivo, C57BL/6 mice; details: Example 18; 28 g Fe-Lf per 2.4 Kg diet; fluorouracil 150 mg/Kg i.p.
Protocol: as §1, §2

[2] = Western blot detection of bovine lactoferrin in plasma, tumour and organs of fed mice; type: in vivo; details: oral diet
Protocol: Groups of 5 tumour-bearing mice were fed either the control diet or an iron-saturated bovine lactoferrin diet and treated with paclitaxel or doxorubicin, as indicated. Mice were killed on days described in Example 6 and plasma collected. Referring to FIG. 6, plasma proteins (80 μg) were separated on a 10% polyacrylamide SDS-gel, transferred to a membrane, and blotted with an antibody against bovine lactoferrin (upper panel). The relative amounts of bovine lactoferrin in each lane were recorded by densitometry (lower panel). The order of the plasma samples shown in the histograph is the same for the Western blot. A 75 kDa band characteristic of lactoferrin was present in the plasma samples taken from all the different treatment groups fed bovine lactoferrin, whereas this same band was absent from the plasma of mice fed the control diet (FIG. 6).
Tumour homogenates and sections were screened to determine whether lactoferrin in the systemic circulation reached the tumour site. A group of 5 tumour-bearing mice were fed the control diet or an iron-saturated bovine lactoferrin diet, and treated with paclitaxel and doxorubicin. Mice were killed on days described in Example 6, and tissues from the tumour and small intestine were collected. Tumour and intestine homogenates (80 μg of protein) were separated on a 10% polyacrylamide SDS-gel, transferred to a membrane, and Western blotted with an antibody against bovine lactoferrin (upper panel of FIG. 7). The relative amounts of bovine lactoferrin in each lane were recorded by densitometry (lower panel of FIG. 7). The order of the plasma samples shown in the histograph is the same for the Western blot.
A group of 5 tumour-bearing mice were fed an iron-saturated bovine lactoferrin diet. Mice were killed on days described in Example 6, and tissues from multiple organs, including different regions of the intestine, were collected. Organ homogenates (80 μg of protein) were separated on a 10% polyacrylamide SDS-gel, transferred to a membrane, and blotted with either an antibody against bovine lactoferrin (upper panel of FIG. 8A) or an anti-α-tubulin mAb (middle panel of FIG. 8A). Bovine lactoferrin (1 μg) was included as a standard. The relative amounts of bovine lactoferrin in each lane were recorded by densitometry (lower panel of FIG. 8A). The order of the plasma samples shown in the histograph is the same for the Western blot. […] Roughly equal amounts of bovine lactoferrin were retained by the proximal and distal regions of the small intestine, and the large intestine.

IL-18 = IL-18 production by cultured intestinal loops; type: cell-based, mice; details: Example 20; 400 and 800 μg/ml; 48 h; vs bovine serum albumin control protein
Protocol: Cytokine levels in the supernatants of homogenates of the small intestine were determined using a “sandwich” ELISA kit (Endogen, Woburn, Mass.). They were detected within standard curve ranges of 15-375 pg/ml for IL-4, 0-2450 pg/ml for IL-5, 15-1000 pg/ml for TNF-α, 0-3000 pg/ml for IFN-γ, 37-3000 pg/ml for IL-10, 31.3-2000 pg/ml for IL-12, and 31.3-2000 pg/ml for IL-18, respectively. Quantification of nitrite, indicative of NO production, was carried out by the Griess reaction (Sigma, USA). The results are expressed as the mean nitrite concentration (μM)±SD.
100% Fe-saturated Lf, natural Lf (less than 20% iron saturated), and bovine serum albumin control were added at 400 and 800 μg/ml to intestinal loops (2.5 cm segments of the small intestine) prepared from healthy 6 to 7 week-old female mice, which were kept in culture for 48 h. IL-18 levels released by the intestinal loops, and present in the supernatants of homogenates of the small intestine were determined using a “sandwich” ELISA kit as described above.

EL-4 target cells = test: Anti-tumour CTL and/or NK cell cytolytic activity of splenocytes against EL-4 target cells; details: for increase in anti-tumour CTL and/or NK cell activity: Example 2, day 98; for increase in anti-tumour cytolytic activity: Example 18, EL-4, vs controls
Protocol: Splenocytes were harvested 28 days following tumour cell injection, as specified. They were incubated at 37° C. with EL-4 target cells in graded E:T ratios in 96-well round-bottom plates. After a 4-hour incubation, 50 μl of supernatant was collected, and lysis was measured using the Cyto Tox 96 Assay Kit (Promega, Madison, Wis., USA). Background controls for non-specific target and effector cell lysis were included. After background subtraction, percentage of cell lysis was calculated using the formula: 100× (experimental-spontaneous effector-spontaneous target/maximum target-spontaneous target).

B1: iron-saturated bovine lactoferrin: Iron-saturated bovine lactoferrin extract (100% saturated) prepared from natural bLf (protein)
chain: APRKNVRWCTISQPEWFKCRRWQWRMKKLGAPSITCVRRAFALECIRAIAEKKADAVTLDGGMVFEAGRDPYKLRPVAAEIYGTKESPQTHYYAVAVVKKGSNFQLDQLQGRKSCHTGLGRSAGWIIPMGILRPYLSWTESLEPLQGAVAKFFSASCVPCIDRQAYPNLCQLCKGEGENQCACSSREPYFGYSGAFKCLQDGAGDVAFVKETTVFENLPEKADRDQYELLCLNNSRAPVDAFKECHLAQVPSHAVVARSVDGKEDLIWKLLSKAQEKFGKNKSRSFQLFGSPPGQRDLLFKDSALGFLRIPSKVDSALYLGSRYLTTLKNLRETAEEVKARYTRVVWCAVGPEEQKKCQQWSQQSGQNVTCATASTTDDCIVLVLKGEADALNLDGGYIYTAGKCGLVPVLAENRKSSKHSSLDCVLRPTEGYLAVAVVKKANEGLTWNSLKDKKSCHTAVDRTAGWNIPMGLIVNQTGSCAFDEFFSQSCAPGADPKSRLCALCAGDDQGLDKCVPNSKEKYYGYTGAFRCLAEDVGDVAFVKNDTVWENTNGESTADWAKNLNREDFRLLCLDGTRKPVTEAQSCHLAVAPNHAVVSRSDRAAHVKQVLLHQQALFGKNGKNCPDKFCLFKSETKNLLFNDNTECLAKLGGRPTYEEYLGTEYVTAIANLKKCSTSPLLEACAFLTR
modifications: iron-saturated; Bovine Lactoferrin
notes: Iron-saturated bovine lactoferrin extract (100% saturated) prepared from natural bLf
For B1, the “inhibition of tumour growth” value (EL-4 tumours; 2 of 5 mice, vs control diet, P>0.05) was 31%, the “inhibition of tumour growth” value (EL-4 tumours; the latter 3 mice (tumours first prevented for one week), P<0.05) was 51% and the “mice remaining completely tumour-free” value (EL-4 tumours; Example 2, of 24 mice, monitored 11 weeks) was “Four”. For the same molecule, the “mice that resisted the tumour challenge for 6 weeks” value (EL-4 tumours; Example 2, of 24 mice, tumours then grew at reduced rate) was “Five”, the “time for tumours to reach 0.4 cm in diameter” value (EL-4 tumours; Example 13, diet started at ~0.2 cm, control mice one week) was “two” and the “mice of ten that completely rejected the tumour challenge” value (EL-4 tumours; Example 15, 20 g of Lf per 2.4 Kg diet) was “one”. The “mice of ten that completely rejected the tumour challenge” value (EL-4 tumours; Example 16, 1 g Fe-Lf per 2.4 Kg diet) was “one”, the “tumour growth rate vs control diet” value (EL-4 tumours; Example 16, 5 and 25 g per 2.4 Kg diet) was “grew significantly (p<0.05 at days 35-49) more slowly” and the “mice of ten that completely rejected the tumour challenge” value (EL-4 tumours; Example 16, 5 g Fe-Lf per 2.4 Kg diet) was “two”. The “mice of ten that completely rejected the tumour challenge” value (EL-4 tumours; Example 16, 25 g Fe-Lf per 2.4 Kg diet) was “three”, the “tumour growth rate vs control diet” value (EL-4 tumours; Example 16, lowest and highest doses (1 and 100 g per 2.4 Kg diet)) was “did not differ greatly” and the EL-4 tumour response (EL-4 tumours; Example 18, 28 g Fe-Lf per 2.4 Kg diet, drugs i.p. at ~0.4 to 0.5 cm) was “slowed the growth of all three tumour types, but failed to eradicate the tumours altogether”. For the same molecule, the LLC tumour response [1] was “slowed the growth of all three tumour types, but failed to eradicate the tumours altogether”, the B16 tumour response (B16 melanoma tumours) was “slowed the growth of all three tumour types, but failed to eradicate the tumours altogether” and the “state of bovine lactoferrin in plasma” value ([2]; Example 9, Western blot) was “largely undegraded”. The “75 kDa band characteristic of lactoferrin in plasma” value ([2]; Example 9, Western blot of plasma) was “present”, the “75 kDa band and partially degraded products in tumour and small intestine” value ([2]; Example 10, homogenates) was “present in homogenates of both the tumour and small intestine” and the “bovine lactoferrin of 75 kDa in organs” value ([2]; Example 11, organ homogenates) was “present in all regions of the intestine, and in the liver, but it was also present in lesser amounts in spleen, heart, lung, kidney, and brain”. For the same molecule, the “increase in the levels of IL-18 in the intestine” value (IL-18) was 10 fold, the “anti-tumour CTL and/or NK cell activity of splenocytes” value (EL-4 target cells; Example 1, splenocytes at day 42, vs control diet) was “significantly (P<0.05) increased” and the “increase in anti-tumour CTL and/or NK cell activity” value (EL-4 target cells; mice that remained tumour-free, vs control diet, P<0.001) was 6 fold. The “increase in anti-tumour CTL and/or NK cell activity” value (EL-4 target cells; mice who developed tumours and were switched to control diet, vs control diet, P<0.001) was 30 fold, the “increase in anti-tumour cytolytic activity of splenocytes” value (EL-4 target cells; Example 15, the one mouse that resisted the tumour challenge, vs control, P<0.001) was 6 fold and the “increase in anti-tumour cytolytic activities of splenocytes” value (EL-4 target cells; Example 16, 6 of 30 mice that rejected the tumour on 1, 5 and 25 g diets, p<0.001) was 3 to 4.6 fold. The “increase in anti-tumour cytolytic activity” value (EL-4 target cells; FIG. 14B (epirubucin experiment)) was 130%, the “increase in anti-tumour cytolytic activity” value (EL-4 target cells; FIG. 14D (fluorouracil experiment)) was 87% and the “increase in anti-tumour cytolytic activity” value (EL-4 target cells; FIG. 14F (cyclophosphamide/methotrexate experiment)) was 100%.
